Where a SMILES comes first, the peptide text is derived from it. The star is where a group is joined. X1 = COc1ccc2c3c1O[C@H]1C(O*)=CC[C@H]4[C@@H](C2)N(C)CC[C@]314
Tests used:
[1] = Intranasal bioavailability of hydrocodone conjugates in rats, LC/MS/MS; conditions: intranasal, 1 mg/kg
[2] = Intravenous bioavailability of hydrocodone conjugates in rats, LC/MS/MS; conditions: intravenous
[3] = target: T1, human recombinant dopamine transport binding sites (Homo sapiens, UniProt Q01959); assay: Radioligand binding, dopamine transporter; conditions: 10^−9 to 10^−5 M
T1 construct: purchased Novascreen, Hanover, Md

[4] = target: T2, human recombinant norepinephrine transport binding sites (Homo sapiens, UniProt P23975); assay: Radioligand binding, norepinephrine transporter; conditions: 10^−9 to 10^−5 M
T2 construct: purchased Novascreen, Hanover, Md

[5] = Oral bioavailability in rats at escalating doses, LC/MS/MS; conditions: rat
[6] = Intranasal bioavailability in rats, plasma d-amphetamine by ELISA; conditions: rat, 3 mg/kg
[7] = Kitchen tests: release of amphetamine by water, acid, base and heat; conditions: heated to boiling for 20-60 minutes
[8] = 1 mg/kg dose, hydrocodone plus hydromorphone
[9] = 1 mg/kg dose, relative to hydrocodone bitartrate
[10] = 1 mg/kg hydrocodone base content
[11] = 1 mg/kg hydrocodone base content, 0 h
[12] = 1 mg/kg hydrocodone base content, 0.1 h
[13] = 1 mg/kg hydrocodone base content, 0.5 h
[14] = 1 mg/kg hydrocodone base content, 1.0 h
[15] = 1 mg/kg hydrocodone base content, 2.0 h
[16] = 1 mg/kg hydrocodone base content, 4.0 h
[17] = male, Sprague-Dawley, in vivo, po, 3 mg/kg
[18] = male, Sprague-Dawley, in vivo, po, 6 mg/kg
[19] = male, Sprague-Dawley, in vivo, po, 12 mg/kg
[20] = male, Sprague-Dawley, in vivo, po, 60 mg/kg

T2 sequence (P23975 whole entry): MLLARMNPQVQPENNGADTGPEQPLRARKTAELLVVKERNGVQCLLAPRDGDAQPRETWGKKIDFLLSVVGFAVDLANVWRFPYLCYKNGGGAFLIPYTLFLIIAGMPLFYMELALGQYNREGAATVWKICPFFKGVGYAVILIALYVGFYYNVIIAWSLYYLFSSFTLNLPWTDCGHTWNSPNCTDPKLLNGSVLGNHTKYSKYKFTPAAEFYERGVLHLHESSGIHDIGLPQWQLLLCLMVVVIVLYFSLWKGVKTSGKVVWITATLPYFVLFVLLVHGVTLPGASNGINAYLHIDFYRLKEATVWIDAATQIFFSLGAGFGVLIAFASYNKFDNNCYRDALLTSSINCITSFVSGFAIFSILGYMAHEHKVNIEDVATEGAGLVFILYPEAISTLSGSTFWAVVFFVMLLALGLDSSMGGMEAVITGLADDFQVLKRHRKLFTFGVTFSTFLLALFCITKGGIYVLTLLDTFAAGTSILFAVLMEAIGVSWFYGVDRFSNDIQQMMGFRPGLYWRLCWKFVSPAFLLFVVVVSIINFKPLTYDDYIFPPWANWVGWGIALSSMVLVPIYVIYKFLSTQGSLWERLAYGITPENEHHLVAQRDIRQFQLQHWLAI
T1 sequence (Q01959 whole entry): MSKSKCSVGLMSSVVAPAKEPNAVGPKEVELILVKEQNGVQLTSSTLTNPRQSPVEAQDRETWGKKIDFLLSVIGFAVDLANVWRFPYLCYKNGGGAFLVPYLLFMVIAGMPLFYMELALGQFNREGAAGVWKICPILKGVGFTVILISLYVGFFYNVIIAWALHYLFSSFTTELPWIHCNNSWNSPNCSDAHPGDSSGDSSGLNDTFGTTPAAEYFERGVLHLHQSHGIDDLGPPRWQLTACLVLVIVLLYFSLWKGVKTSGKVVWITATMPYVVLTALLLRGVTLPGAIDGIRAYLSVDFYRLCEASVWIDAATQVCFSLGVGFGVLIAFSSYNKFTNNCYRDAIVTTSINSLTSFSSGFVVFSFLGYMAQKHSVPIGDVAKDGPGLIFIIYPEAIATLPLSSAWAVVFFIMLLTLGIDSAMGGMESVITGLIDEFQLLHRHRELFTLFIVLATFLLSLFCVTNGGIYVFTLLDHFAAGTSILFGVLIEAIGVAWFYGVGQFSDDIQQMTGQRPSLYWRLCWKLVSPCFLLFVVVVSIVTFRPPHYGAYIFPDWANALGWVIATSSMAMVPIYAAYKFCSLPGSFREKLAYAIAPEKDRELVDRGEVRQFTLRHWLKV

CC[C@H](C)[C@H](NC(=O)[C@H](Cc1ccccc1)NC(=O)[C@H](Cc1ccccc1)NC(=O)[C@H](Cc1ccc(O)cc1)NC(=O)[C@@H](N)Cc1ccc(O)cc1)C(=O)OC1=CC[C@H]2[C@H]3Cc4ccc(OC)c5c4[C@@]2(CCN3C)[C@H]1O5 [YYFFI[SEQ ID NO: 8]-HC, Tyr-Tyr-Phe-Phe-Ile[SEQ ID NO: 8]-(6-O)-Hydrocodone] (H-YYFFI-X1)
Mean HC (hydrocodone) concentration ([1]; 0 min): 0 ng/mL | Mean HC + HM concentration ([1]; 0 min): 0 ng/mL | Mean HM (hydromorphone) concentration ([1]; 0 min): 0 ng/mL | Mean HC (hydrocodone) concentration ([1]; 5 min): 28 ng/mL | Mean HC + HM concentration ([1]; 5 min): 28 ng/mL | Mean HM (hydromorphone) concentration ([1]; 5 min): bql^3 | Mean HC (hydrocodone) concentration ([1]; 15 min): 27 ng/mL | Mean HC + HM concentration ([1]; 15 min): 27 ng/mL | Mean HM (hydromorphone) concentration ([1]; 15 min): bql^4 | Mean HC (hydrocodone) concentration ([1]; 30 min): 16 ng/mL | Mean HC + HM concentration ([1]; 30 min): 16 ng/mL | Mean HM (hydromorphone) concentration ([1]; 30 min): bql^5 | Mean HC (hydrocodone) concentration ([1]; 60 min): 21 ng/mL | Mean HC + HM concentration ([1]; 60 min): 21 ng/mL | Mean HM (hydromorphone) concentration ([1]; 60 min): bql^6 | hydrocodone plus hydromorphone concentration ([2]; 1 mg/kg dose, 5 Minutes): 171 ng/mL | hydrocodone plus hydromorphone concentration ([2]; 1 mg/kg dose, 15 Minutes): 28 ng/mL | hydrocodone plus hydromorphone concentration ([2]; 1 mg/kg dose, 30 Minutes): 22 ng/mL | hydrocodone plus hydromorphone concentration ([2]; 1 mg/kg dose, 60 Minutes): 18 ng/mL | AUC (ng/ml h) 0-1 h [2, 8]: 0.04 µg·h/mL | Cmax [2, 8]: 0.171 µg/mL | Percent HC (AUC) [2, 9]: 29% | Percent HC (Cmax) [2, 9]: 72% | HC (hydrocodone) AUC, Percent relative to hydrocodone bitartrate [2, 10]: 19% | HC (hydrocodone) Cmax [2, 10]: 0.0087 µg/mL | HC (hydrocodone) Cmax, Percent relative to hydrocodone bitartrate [2, 10]: 20.2% | HC + HM AUC, Percent relative to hydrocodone bitartrate [2, 10]: 36% | HC + HM Cmax [2, 10]: 0.0226 µg/mL | HC + HM Cmax, Percent relative to hydrocodone bitartrate [2, 10]: 10.8% | HM (hydromorphone) AUC, Percent relative to hydrocodone bitartrate [2, 10]: 33% | HM (hydromorphone) Cmax [2, 10]: 0.0313 µg/mL | HM (hydromorphone) Cmax, Percent relative to hydrocodone bitartrate [2, 10]: 12.4% | Mean HC (hydrocodone) concentration [2, 11]: 0 ng/mL | Mean HC + HM concentration [2, 11]: 0 ng/mL | Mean HM (hydromorphone) concentration [2, 11]: 0 ng/mL | Mean HC (hydrocodone) concentration [2, 12]: 8.75 ng/mL | Mean HC + HM concentration [2, 12]: 22.6 ng/mL | Mean HM (hydromorphone) concentration [2, 12]: 31.3 ng/mL | Mean HC (hydrocodone) concentration [2, 13]: 1.44 ng/mL | Mean HC + HM concentration [2, 13]: 13.5 ng/mL | Mean HM (hydromorphone) concentration [2, 13]: 14.9 ng/mL | Mean HC (hydrocodone) concentration [2, 14]: 0.92 ng/mL | Mean HC + HM concentration [2, 14]: 13.0 ng/mL | Mean HM (hydromorphone) concentration [2, 14]: 13.9 ng/mL | Mean HC (hydrocodone) concentration [2, 15]: 0.41 ng/mL | Mean HC + HM concentration [2, 15]: 13.1 ng/mL | Mean HM (hydromorphone) concentration [2, 15]: 13.5 ng/mL | Mean HC (hydrocodone) concentration [2, 16]: 0.33 ng/mL | Mean HC + HM concentration [2, 16]: 8.5 ng/mL | Mean HM (hydromorphone) concentration [2, 16]: 8.8 ng/mL

CC(Cc1ccccc1)NC(=O)C(N)CCCCN [L-lysine-d-amphetamine, 2,6-diaminohexanoic acid-(1-methyl-2-phenylethyl)-amide]
Specific binding [3]: did not bind | Specific binding [4]: did not bind | Tmax ([5]; male, Sprague-Dawley, in vivo, po): 0.25 to 3 h | AUC(0-t) [5, 17]: 0.33 µg·h/mL | Cmax [5, 17]: 0.135 µg/mL | Tmax [5, 17]: 1.5 h | AUC(0-t) [5, 18]: 1.16 µg·h/mL | Cmax [5, 18]: 0.677 µg/mL | Tmax [5, 18]: 0.25 h | AUC(0-inf) [5, 19]: 4.51 µg·h/mL | AUC(0-t) [5, 19]: 4.24 µg·h/mL | Cmax [5, 19]: 0.856 µg/mL | Tmax [5, 19]: 1 h | AUC(0-t) [5, 20]: 8.23 µg·h/mL | Cmax [5, 20]: 1.87 µg/mL | Tmax [5, 20]: 3 h | Tmax ([5]; male, Sprague-Dawley, in vivo, po, […]): 0.25 h | Cmax of d-amphetamine compared to d-amphetamine sulfate ([5]; oral, 1.5 to 6 mg/kg): reduced by approximately half | Release of d-amphetamine into circulation [6]: did not release any significant amount of d-amphetamine | amphetamine detected after treatment: Baking Powder [7]: 0% | amphetamine detected after treatment: Baking Soda [7]: 0% | amphetamine detected after treatment: Tap Water [7]: 0% | amphetamine detected after treatment: Vinegar [7]: 0%

— patent US7375083B2, “Pharmaceutical compositions for prevention of overdose or abuse” (Shire LLC, priority 2003, dated 2008)
